Test results as given in US20150203577A1 (Chugai, published 2015).

T1: mouse FcγRIII extracellular domain, C-terminal His tag (mouse, UniProt P08508 31-215)
T1 construct: also called mFcγRIII; mFcgRIII
T1 chain: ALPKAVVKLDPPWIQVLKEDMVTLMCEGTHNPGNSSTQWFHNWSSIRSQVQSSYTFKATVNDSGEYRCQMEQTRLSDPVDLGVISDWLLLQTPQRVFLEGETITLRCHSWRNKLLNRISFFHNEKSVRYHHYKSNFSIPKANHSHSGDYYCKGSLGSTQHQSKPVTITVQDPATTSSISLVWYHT

T2: mouse FcγRII extracellular domain, C-terminal His tag (mouse, UniProt P08101 30-210)
T2 construct: also called mFcγRII; mFcgRII
T2 sequence: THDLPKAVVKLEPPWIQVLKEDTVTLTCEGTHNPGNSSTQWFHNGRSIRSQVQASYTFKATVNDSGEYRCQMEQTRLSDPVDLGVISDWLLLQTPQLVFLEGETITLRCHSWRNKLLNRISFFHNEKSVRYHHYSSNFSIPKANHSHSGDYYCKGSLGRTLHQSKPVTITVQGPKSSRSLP


What was measured:
[1] = molecular target: T1, mouse FcγRIII extracellular domain, …; test: SPR (Biacore T200), antibody captured on Protein L, mFcγR analyte
[2] = molecular target: T2, mouse FcγRII extracellular domain, …; test: as above

Row | Binder | Kd [1] | relative mFcγRIII-binding activity (mIgG1 = 1) [1] | Kd [2] | relative mFcγRII-binding activity (mIgG1 = 1) [2]
1 | H237-MB866/MRAL-k0 (antibody, mouse IgG1, kappa, copies: 2 + 2) heavy: QVQLQESGPGLVKPSETLSLTCAVSGHSISHDHAWSWVRQPPGEGLEWIGFISYSGITNYNPSLQGRVTISRDNSKNTLYLQMNSLRAEDTAVYYCARSLARTTAMDYWGEGTLVTVSSAKTTPPSVYPLAPGSAAQTNSMVTLGCLVKGYFPEPVTVTWNSGSLSSGVHTFPAVLQSDLYTLSSSVTVPSSTWPSETVTCNVAHPASSTKVDKKIVPRDCGCKPCICEPNEVEIVFIFPPKPKDVLTITLTPKVTCVVVDISKDDPEVQFSWFVDDVEVHTAQTQPREEQFNSTFRSVSELPIMHQDWLNGKEFKCRVNSDGFPAPIEKTISKTKGRPKAPQVYTIPPPKEQMAKDKVSLTCMITDFFPEDITVEWQWNGQPAENYKNTQPIMDTDGSYFVYSKLNVQKSNWEAGNTFTCSVLHEGLHNHHTEKSLSHSPGK light: not shown | 1570 nM | 0.2 fold vs H237-mIgG1/MRAL-k0 | 16.2 nM | 13 fold vs H237-mIgG1/MRAL-k0
2 | H237-MB859/MRAL-k0 (antibody, mouse IgG1, kappa, copies: 2 + 2) heavy: QVQLQESGPGLVKPSETLSLTCAVSGHSISHDHAWSWVRQPPGEGLEWIGFISYSGITNYNPSLQGRVTISRDNSKNTLYLQMNSLRAEDTAVYYCARSLARTTAMDYWGEGTLVTVSSAKTTPPSVYPLAPGSAAQTNSMVTLGCLVKGYFPEPVTVTWNSGSLSSGVHTFPAVLQSDLYTLSSSVTVPSSTWPSETVTCNVAHPASSTKVDKKIVPRDCGCKPCICEPNEVELVFIFPPKPKDVLTITLTPKVTCVVVDISKDDPEVQFSWFVDDVEVHTAQTQPREEQFNSTFRSVSELPIMHQDWLNGKEFKCRVNSDGFPAYIERTISKTKGRPKAPQVYTIPPPKEQMAKDKVSLTCMITDFFPEDITVEWQWNGQPAENYKNTQPIMDTDGSYFVYSKLNVQKSNWEAGNTFTCSVLHEGLHNHHTEKSLSHSPGK light: not shown | 396 nM | 0.7 fold vs H237-mIgG1/MRAL-k0 | 6.15 nM | 34.2 fold vs H237-mIgG1/MRAL-k0
3 | H237-MB860/MRAL-k0 (antibody, mouse IgG1, kappa, copies: 2 + 2) heavy: QVQLQESGPGLVKPSETLSLTCAVSGHSISHDHAWSWVRQPPGEGLEWIGFISYSGITNYNPSLQGRVTISRDNSKNTLYLQMNSLRAEDTAVYYCARSLARTTAMDYWGEGTLVTVSSAKTTPPSVYPLAPGSAAQTNSMVTLGCLVKGYFPEPVTVTWNSGSLSSGVHTFPAVLQSDLYTLSSSVTVPSSTWPSETVTCNVAHPASSTKVDKKIVPRDCGCKPCICEPNEVELVFIFPPKPKDVLTITLTPKVTCVVVDISKDDPEVQFSWFVDDVEVHTAQTQPREEQFNSTFRSVSELPIMHQDWLNGKEFKCRVNSDGFPAPIYRTISKTKGRPKAPQVYTIPPPKEQMAKDKVSLTCMITDFFPEDITVEWQWNGQPAENYKNTQPIMDTDGSYFVYSKLNVQKSNWEAGNTFTCSVLHEGLHNHHTEKSLSHSPGK light: not shown | 379 nM | 0.7 fold vs H237-mIgG1/MRAL-k0 | 5.3 nM | 39.6 fold vs H237-mIgG1/MRAL-k0
4 | H237-MB867/MRAL-k0 (antibody, mouse IgG1, kappa, copies: 2 + 2) heavy: QVQLQESGPGLVKPSETLSLTCAVSGHSISHDHAWSWVRQPPGEGLEWIGFISYSGITNYNPSLQGRVTISRDNSKNTLYLQMNSLRAEDTAVYYCARSLARTTAMDYWGEGTLVTVSSAKTTPPSVYPLAPGSAAQTNSMVTLGCLVKGYFPEPVTVTWNSGSLSSGVHTFPAVLQSDLYTLSSSVTVPSSTWPSETVTCNVAHPASSTKVDKKIVPRDCGCKPCICEPNEVEIVFIFPPKPKDVLTITLTPKVTCVVVDISDDDPEVQFSWFVDDVEVHTAQTQPREEQFNSTFRSVSELPIMHQDWLNGKEFKCRVNSDGFPAPIEKTISKTKGRPKAPQVYTIPPPKEQMAKDKVSLTCMITDFFPEDITVEWQWNGQPAENYKNTQPIMDTDGSYFVYSKLNVQKSNWEAGNTFTCSVLHEGLHNHHTEKSLSHSPGK light: not shown | 331 nM | 0.9 fold vs H237-mIgG1/MRAL-k0 | 5.96 nM | 35.2 fold vs H237-mIgG1/MRAL-k0
5 | H237-MB868/MRAL-k0 (antibody, mouse IgG1, kappa, copies: 2 + 2) heavy: QVQLQESGPGLVKPSETLSLTCAVSGHSISHDHAWSWVRQPPGEGLEWIGFISYSGITNYNPSLQGRVTISRDNSKNTLYLQMNSLRAEDTAVYYCARSLARTTAMDYWGEGTLVTVSSAKTTPPSVYPLAPGSAAQTNSMVTLGCLVKGYFPEPVTVTWNSGSLSSGVHTFPAVLQSDLYTLSSSVTVPSSTWPSETVTCNVAHPASSTKVDKKIVPRDCGCKPCICEPNEVEIVFIFPPKPKDVLTITLTPKVTCVVVDISDDDPEVQFSWFVDDVEVHTAQTQPREEQFNSTFRSVSELPIMHQDWLNGKEFKCRVDSDGFPAPIEKTISKTKGRPKAPQVYTIPPPKEQMAKDKVSLTCMITDFFPEDITVEWQWNGQPAENYKNTQPIMDTDGSYFVYSKLNVQKSNWEAGNTFTCSVLHEGLHNHHTEKSLSHSPGK light: not shown | 329 nM | 0.9 fold vs H237-mIgG1/MRAL-k0 | 5.73 nM | 36.6 fold vs H237-mIgG1/MRAL-k0

The next binders have a lower Kd [1] than those just listed; values first:

Row | Kd [1] | relative mFcγRIII-binding activity (mIgG1 = 1) [1] | Kd [2] | relative mFcγRII-binding activity (mIgG1 = 1) [2] | Binder
6 | 313 nM | 0.9 fold vs H237-mIgG1/MRAL-k0 | 4.71 nM | 44.6 fold vs H237-mIgG1/MRAL-k0 | H237-MB857/MRAL-k0 (antibody, mouse IgG1, kappa, copies: 2 + 2) heavy: QVQLQESGPGLVKPSETLSLTCAVSGHSISHDHAWSWVRQPPGEGLEWIGFISYSGITNYNPSLQGRVTISRDNSKNTLYLQMNSLRAEDTAVYYCARSLARTTAMDYWGEGTLVTVSSAKTTPPSVYPLAPGSAAQTNSMVTLGCLVKGYFPEPVTVTWNSGSLSSGVHTFPAVLQSDLYTLSSSVTVPSSTWPSETVTCNVAHPASSTKVDKKIVPRDCGCKPCICEPNEVELVFIFPPKPKDVLTITLTPKVTCVVVDISKDDPEVQFSWFVDDVEVHTAQTQPREEQFNSTFRSVSELPIMHQDWLNGKEFKCRVDSDGFPAPIYKTISKTKGRPKAPQVYTIPPPKEQMAKDKVSLTCMITDFFPEDITVEWQWNGQPAENYKNTQPIMDTDGSYFVYSKLNVQKSNWEAGNTFTCSVLHEGLHNHHTEKSLSHSPGK light: not shown
7 | 311 nM | 0.9 fold vs H237-mIgG1/MRAL-k0 | 4.69 nM | 44.8 fold vs H237-mIgG1/MRAL-k0 | H237-MB856/MRAL-k0 (antibody, mouse IgG1, kappa, copies: 2 + 2) heavy: QVQLQESGPGLVKPSETLSLTCAVSGHSISHDHAWSWVRQPPGEGLEWIGFISYSGITNYNPSLQGRVTISRDNSKNTLYLQMNSLRAEDTAVYYCARSLARTTAMDYWGEGTLVTVSSAKTTPPSVYPLAPGSAAQTNSMVTLGCLVKGYFPEPVTVTWNSGSLSSGVHTFPAVLQSDLYTLSSSVTVPSSTWPSETVTCNVAHPASSTKVDKKIVPRDCGCKPCICEPNEVELVFIFPPKPKDVLTITLTPKVTCVVVDISKDDPEVQFSWFVDDVEVHTAQTQPREEQFNSTFRSVSELPIMHQDWLNGKEFKCRVDSDGFPAYIEKTISKTKGRPKAPQVYTIPPPKEQMAKDKVSLTCMITDFFPEDITVEWQWNGQPAENYKNTQPIMDTDGSYFVYSKLNVQKSNWEAGNTFTCSVLHEGLHNHHTEKSLSHSPGK light: not shown
8 | 223 nM | 1.3 fold vs H237-mIgG1/MRAL-k0 | 3.39 nM | 62 fold vs H237-mIgG1/MRAL-k0 | H237-MB858/MRAL-k0 (antibody, mouse IgG1, kappa, copies: 2 + 2) heavy: QVQLQESGPGLVKPSETLSLTCAVSGHSISHDHAWSWVRQPPGEGLEWIGFISYSGITNYNPSLQGRVTISRDNSKNTLYLQMNSLRAEDTAVYYCARSLARTTAMDYWGEGTLVTVSSAKTTPPSVYPLAPGSAAQTNSMVTLGCLVKGYFPEPVTVTWNSGSLSSGVHTFPAVLQSDLYTLSSSVTVPSSTWPSETVTCNVAHPASSTKVDKKIVPRDCGCKPCICEPNEVELVFIFPPKPKDVLTITLTPKVTCVVVDISKDDPEVQFSWFVDDVEVHTAQTQPREEQFNSTFRSVSELPIMHQDWLNGKEFKCRVDSDGFPAPIERTISKTKGRPKAPQVYTIPPPKEQMAKDKVSLTCMITDFFPEDITVEWQWNGQPAENYKNTQPIMDTDGSYFVYSKLNVQKSNWEAGNTFTCSVLHEGLHNHHTEKSLSHSPGK light: not shown
9 | 142 nM | 2 fold vs H237-mIgG1/MRAL-k0 | 3.09 nM | 67.9 fold vs H237-mIgG1/MRAL-k0 | H237-MB862/MRAL-k0 (antibody, mouse IgG1, kappa, copies: 2 + 2) heavy: QVQLQESGPGLVKPSETLSLTCAVSGHSISHDHAWSWVRQPPGEGLEWIGFISYSGITNYNPSLQGRVTISRDNSKNTLYLQMNSLRAEDTAVYYCARSLARTTAMDYWGEGTLVTVSSAKTTPPSVYPLAPGSAAQTNSMVTLGCLVKGYFPEPVTVTWNSGSLSSGVHTFPAVLQSDLYTLSSSVTVPSSTWPSETVTCNVAHPASSTKVDKKIVPRDCGCKPCICEPNEVELVFIFPPKPKDVLTITLTPKVTCVVVDISDDDPEVQFSWFVDDVEVHTAQTQPREEQFNSTFRSVSELPIMHQDWLNGKEFKCRVNSDGFPAYIEKTISKTKGRPKAPQVYTIPPPKEQMAKDKVSLTCMITDFFPEDITVEWQWNGQPAENYKNTQPIMDTDGSYFVYSKLNVQKSNWEAGNTFTCSVLHEGLHNHHTEKSLSHSPGK light: not shown
10 | 121 nM | 2.3 fold vs H237-mIgG1/MRAL-k0 | 2.58 nM | 81.3 fold vs H237-mIgG1/MRAL-k0 | H237-MB863/MRAL-k0 (antibody, mouse IgG1, kappa, copies: 2 + 2) heavy: QVQLQESGPGLVKPSETLSLTCAVSGHSISHDHAWSWVRQPPGEGLEWIGFISYSGITNYNPSLQGRVTISRDNSKNTLYLQMNSLRAEDTAVYYCARSLARTTAMDYWGEGTLVTVSSAKTTPPSVYPLAPGSAAQTNSMVTLGCLVKGYFPEPVTVTWNSGSLSSGVHTFPAVLQSDLYTLSSSVTVPSSTWPSETVTCNVAHPASSTKVDKKIVPRDCGCKPCICEPNEVELVFIFPPKPKDVLTITLTPKVTCVVVDISDDDPEVQFSWFVDDVEVHTAQTQPREEQFNSTFRSVSELPIMHQDWLNGKEFKCRVNSDGFPAPIYKTISKTKGRPKAPQVYTIPPPKEQMAKDKVSLTCMITDFFPEDITVEWQWNGQPAENYKNTQPIMDTDGSYFVYSKLNVQKSNWEAGNTFTCSVLHEGLHNHHTEKSLSHSPGK light: not shown
